Measurements: article PMC5995566
Like-named read-outs stand apart in the source and are kept apart here.

Key:
human S100A6 (human) [1] = assay: ITC
human S100A6 (human) [2] = assay: ITC; remark: listed apart in the source

peptide from Siah-interacting protein (SIP), sequence (Q9HB71 188-218): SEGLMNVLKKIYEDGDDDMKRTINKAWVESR

peptide from Siah-interacting protein (SIP) (from UniProt Q9HB71 188-218)
Kd (human S100A6 (human) [1]): 26 µM | dH (human S100A6 (human) [1]): 2.9 kcal/mol | fx comp (human S100A6 (human) [1]): 1.5 | Kd (human S100A6 (human) [2]): 20 µM
